Experiment [1] concerns human pluripotent stem cells. The experiment is described as follows: Replacement of FGF2 by other FGFs in Stage 1 differentiation. The class given is cell-based. As to conditions: FGF used in Stage 1 medium. The source says:
In some embodiments, the FGF used in Stage 1 is selected from the group consisting of FGF2, FGF4, FGF7, FGF10 and the mixtures thereof. […] Thus, one would use any one of FGF4, FGF7 and FGF10 to replace FGF2 in Stage 1. One may also use mixtures of two or more of FGF2, FGF4, FGF7 and FGF10 in this stage. In a specific embodiment, the FGF in Stage 1 is FGF2.

Experiment [2] has as its system PDX1, NKX6.1, Neurogenin 3 and insulin gene expression. The experiment is described as follows: QPCR gene expression of endoderm and pancreatic markers in differentiated cells. The class given is cell-based, human. The protocol:
QPCR was performed at the end of Stage 4 ([…] Day 18) to examine gene expression of PDX1, a marker of pancreatic epithelium and progenitor cells, insulin, a marker of beta cells, and Sox9 which is expressed in the developing pancreatic epithelium. The gene expression is compared to undifferentiated cells collected at Day 0 and β-Actin is the internal control. […] Human Fetal Pancreas (HFP), gestation 14-20 weeks, is represented as a positive control.
In FIG. 19, the gene expression is compared to undifferentiated cells collected at Day 0 and B-Actin is the internal control. On the y axis is delta CT (instead of fold change), thus, the lower the value the greater the gene expression.
First, alterations at Stage 3 and 4 altered gene expression minimally. […] On the y axis is delta CT (instead of fold change), thus, the lower the value the greater the gene expression. […] In contrast the addition of Noggin at Stage 4, decreased PDX1 and NKX6.1 gene expression and increased Neurogenin 3 expression. There was no difference in insulin gene expression following the addition of Noggin to Stage 4.

The test system of experiment [3] is PDX1 and insulin protein expression in H1 cells. The experiment is described as follows: Flow cytometry of PDX1 and insulin protein expression at end of Stage 4. It counts as cell-based, human. The source says:
To quantify insulin and PDX1 protein expression we optimized a flow cytometry assay. […] The INS-1 cell line is an immortalized pancreatic beta cell line that expresses both PDX1 and insulin. On the bottom left, is our negative control, unstained H1 cells differentiated for 18 days. On the right, is H1 cells differentiated by the current protocol through day 18 stained with Insulin-PB and PDX1-AF488. […] Only 8-11% of the cells are PDX1 and insulin double positive.
To examine protein expression we collected cells at the end of Stage 4 and examined them by flow cytometry.
Thus, the effect of Noggin is context dependent and synergistic with nicotinamide and Exendin-4.
In general terms: Flow cytometry measures light scatter and fluorescence of single cells or particles in a stream.

Experiment [4] deals with insulin protein expression. The experiment is described as follows: Immunohistochemistry of insulin protein expression after Stage 4. The note with it: addition of Noggin at Stage 4. The class given is cell-based, human. On the procedure:
Immunohistochemistry was performed at the end of Stage 4 (Day 18) to examine protein expression of Insulin and NKX6.1.

The record followed here is patent US9540613B2, “Methods for producing insulin-secreting beta cells from human pluripotent stem cells” (Wisconsin Alumni Research Foundation, priority 2013, dated 2017).

B1: FGF10: fibroblast growth factor family ligand (protein, UniProt O15520 38-208, looked up)
Fibroblast growth factor 10: QALGQDMVSPEATNSSSSSFSSPSSAGRHVRSYNHLQGDVRWRKLFSFTKYFLKIEKNGKVSGTKKENCPYSILEITSVEIGVVAVKAINSNYYLAMNKKGKLYGSKEFNNDCKLKERIEENGYNTYASFNWQHNGRQMYVALNGKGAPRRGQKTRRKNTSAHFLPMVVHS
As to B1, the “effects in Stage 1 relative to FGF2” value in experiment [1] is on record as “comparable to FGF2”.

B2: FGF4: fibroblast growth factor family ligand (protein, UniProt P08620 31-206, looked up)
Fibroblast growth factor 4: APTAPNGTLEAELERRWESLVALSLARLPVAAQPKEAAVQSGAGDYLLGIKRLRRLYCNVGIGFHLQALPDGRIGGAHADTRDSLLELSPVERGVVSIFGVASRFFVAMSSKGKLYGSPFFTDECTFKEILLPNNYNAYESYKYPGMFIALSKNGKTKKGNRVSPTMKVTHFLPRL
For the molecule B2, the “effects in Stage 1 relative to FGF2” value in experiment [1] is given as “comparable to FGF2”.

B3: Noggin: a protein which in humans is encoded by the NOG gene; inhibits TGF-β signal transduction (protein, UniProt Q13253 28-232, looked up)
Noggin: QHYLHIRPAPSDNLPLVDLIEHPDPIFDPKEKDLNETLLRSLLGGHYDPGFMATSPPEDRPGGGGGAAGGAEDLAELDQLLRQRPSGAMPSEIKGLEFSEGLAQGKKQRLSKKLRRKLQMWLWSQTFCPVLYAWNDLGSRFWPRYVKVGSCFSKRSCSVPEGMVCKPSKSVHLTVLRWRCQRRGGQRCGWIPIQYPIISECKCSC
As for B3, in experiment [2] (addition of Noggin at Stage 4), the NKX6.1 gene expression result is on record as “decreased”, the “Neurogenin 3 expression” value is on record as “increased” and the PDX1 gene expression entry is “decreased”. In addition, the insulin gene expression result in experiment [2] (addition of Noggin to Stage 4) is “no difference”. Also, the double positive cells result in experiment [3] (Noggin in the context of ITSFINE) was “increases double positive cells”. For the same molecule, the insulin expression entry in experiment [3] (addition of Noggin at Stage 4 (ITSFINE)) is reported as “increases insulin expression”. Besides, the double positive cells entry in experiment [3] (addition of Noggin in the absence of nicotinamide and Exendin-4 (ITSFI)) is recorded as “does not further increase the double positive cells”. Further, in experiment [4], the “clustering and insulin protein expression” value was “increased clustering and insulin protein expression”; the “hormonal status of insulin-expressing cells” value is “a majority of those cells are still polyhormonal”.

B4: FGF7: fibroblast growth factor 7 (protein, UniProt P21781 32-194, looked up)
Fibroblast growth factor 7: CNDMTPEQMATNVNCSSPERHTRSYDYMEGGDIRVRRLFCRTQWYLRIDKRGKVKGTQEMKNNYNIMEIRTVAVGIVAIKGVESEFYLAMNKEGKLYAKKECNEDCNFKELILENHYNTYASAKWTHNGGEMFVALNQKGIPVRGKKTKKEQKTAHFLPMAIT
Take B4: the “effects in Stage 1 relative to FGF2” value in experiment [1] is on record as “comparable to FGF2”.
